Experiment: soluble on expression in E. coli; label from the status in PepcDB or PDB records
With “MSLDVINKYGTPLKLSYLPKISSQIQKAKQWFGEAITNNNYSGTYTYCYCTKSSHFSFVLNEALKNDIHIETSSAYDIPIVRILFENNKITKATNVICNGYKRPEYTDYICDLINEGFNCTPILDNLDEITAYEKGIETSCNLGIRLATDEEPKFEFYTSRLGFRYNDVVQFYKEKIEPNPKFKLKMLHFFINTGIKDTTYYWSELSRFVHMYCTMKKINPDMDSIDIGGGWPIKTSVHFEYDYKYMADQIVKTIKKVCDEEGVPTPNIFTEFGSFTVGESGAAVYSVLGSKLQNDKEEWYMIDSSFITTLPDVWGLSQKYLLLAVNGWDKPYKKVKLGGITCDSMDYYNSEAHQNLVFMPELDEKEPTYIGFFHTGAYQESLGGYGGIQHCLVPAPKHILIDKDADGNFSYNLFAPEQTKESMLKILGYKAEGHHHHHH” the “soluble on expression in E. coli” value was “soluble”. For “MGSDKIHHHHHHMQKRNELPGHLAVAPFTLDSARASGVSRARLRRKDVVHVGRGLYRPSDWNFELEAAARALSTASPGAWISHVTAARLHCQLLPPWLADSTELHLSKPRALPSVRRSGVIGHTVVALEDEIESIDGLRVSTRSRTWLDLARRLPVSDLVCMGDQLIRVPRVAFEGRTRPYDTLDGLRTLVGRHPNLQGVVRAREALHLMRVGADSAPESLLRLAMADAGLPEPELQLALRPTDAVSPTADLGYRHRRLAIQYDGEHHLLDAQIFSDRRRDKAFESAGWTVLILGKDDLADGCRPAVSKIKRLLRTAWLDHPQASGFADAG”, the “soluble on expression in E. coli” value was “not soluble”. In the case of “MFAMTSIAVIGGGKIGEALISGLVASGMSPKDIHVTNRNAERAQELKERYGVLTFLENIAAVDDVDMVFLCVKPQQVIPVVEEIADVVDNNTSTTIVSMAAGVTNAMIEESLAAGSPVIRVMPNTPMLVGKGMSVVAPGRYADEDTVASLTQLLEAVGSVEVIEESSMDAVVALSGSSPAYLFLMVEALIDAGVFLGLPRDKAKNLAVSSFAGAATMLEQTGEEPAVLRANVSSPGGTTIAAIREFEESGLRAAVYRAATAAATRNSSLG”, the “soluble on expression in E. coli” value is reported as “not soluble”. With “MHLSSSLLLVAAALFALPDGTFECATNGLCGYQPSCAAYSQPRPSCGCASSYGCGSYGCYRLRARGAKSYQPKRGRSRVTVGGSSSEEAREVLRQRMAMERVRRKEQLTSSEELDLVSPSVLRNSKSEQPINPDRAFYECCIDRKLPDACLSKCSFGAFTKPTLQAMYFKQDPCPLDAMKEMQFCAAQGRDHRDCCARNGVTTTLAGPKCLSFCDQRLGRNQQLDMSYVPCFDRFESMKSCFWHDMTRYYKRV” the “soluble on expression in E. coli” value was “not soluble”. For “GAKESEQKVTIDSAKHEKHTKDKEENNSANTVFFDKINDLLVASVKEFEGTVGISYLDLETGEQRSVNGQHEFYTASTIKVPLTMLVADTVASGQKKWTDLIPYNAEEDYEEGTGIIAYNIQPEYPLKTLQEYAITYSDNIAKNMLYDTLGGDAKAKREMYQRYLHKTPSIEEPQFSSEDALVILQKLYTEKATKPDYQAIYDSMKQSVFHERMETPTTQGKVAHKIGSYDEFIHDMGILETPHPFALAIFTKGPDNAKSAAFIASVTDKLWQLQVSEYPNQ”, the “soluble on expression in E. coli” value was “soluble”. With “MLKSGRLNFLKLNINSRLLYSTNPQLTKKVIGIDLGTTNSAVAYIRDSNDKKSATIIENDEGQRTTPSIVAFDVKSSPQNKDQMKTLVGMAAKRQNAINSENTFFATKRLIGRAFNDKEVQRDMAVMPYKIVKCESNGQAYLSTSNGLIQSPSQIASILLKYLKQTSEEYLGEKVNLAVITVPAYFNDSQRQATKDAGKLAGLNVLRVINEPTAAALSFGIDDKRNNGLIAVYDLGGGTFDISILDIEDGVFEVRATNGDTHLGGEDFDNVIVNYIIDTFIHENPEITREEITKNRETMQRLKDVSERAKIDLSHVKKTFIELPFVYKSKHLRVPMTEEELDNMTLSLINRTIPPVKQALKDADIEPEDIDEVILVGGMTRMPKIRSVVKDLFGKSPNSSVNPDETVALGAAIQGGILSGEIKNVLLLDVTPLTLGIETFGGAFSPLIPRNTTVPVKKTEIFSTGVDGQAGVDIKVFQGERGLVRNNKLIGDLKLTGITPLPKGIPQIYVTFDIDADGIINVSAAEKSSGKQQSITVIPNSGLSEEEIAKLIEEANANRAQDNLIRQRLELISKADIMISDTENLFKRYEKLISSEKEYSNIVEDIKALRQAIKNFKANENDMSIDVNGIKKATDALQGRALKLFQSATKNQQNQGK” the “soluble on expression in E. coli” value was “not soluble”. With “MKGSASTKPGGSPSTSRTAHPARANTSGNASTSGKQPQGPRAPVHAKGKPKRGGAEAEATESDKVAYTVIITNVENDFGKLHRACLPYYCGLRSDYEGTLDVERLLHEGGPQSRRLIGAVRGCSYAVRCRTETRSAEISLYGPANADFAPMQLTKAPRRPSTPAADAKSMAAPTTSSSEKLAQKDTTAPAEDVSEETALANVGAVEQLALRLRRQHYFEEHLPVSVHLPGRKADEVLLRIDKGSASSDADGTNATGVKNEEANGVAEDADADRRGSAATPVTASASREKRQRVVEEDRNADAPSLQRVKAEAPDGDEEGTEEDSATAHERGKTTENDVDRRADNGGRRSRRLTKSKSATIIAQFPRRQKDFVTAVAALSSRVPLQRVRGRLRDLPGFLSCWSLYERHLRVVFRDAESLFKAKQLLDQFELEPGLRVSLIFSDPLSRTNAEYLRAQENESVNE” the “soluble on expression in E. coli” value was “not soluble”. With “MRLNHNSYEIFDFMRSRSAIGVLSKIIITIPPINLRMIIGVMGPEGSYSERAAKLWARKNGLRGAEFHYFADIEDAFLAAVGGKTDISVVPVENSIEGSVGVTLDLLLENEAVIIGEIVVKIEHCLLSKGEPEKIRVILSHPQGLAQCRHFLKTHFPEAELRSTGSTSHAARLAGEFEEMAAIASPEAAERYGLKILLSNVQDRKENHTRFIVVRGGEKVLSGKIKGKADSGEKLNTVFGRNAEHKLCSETETGTENSSSYAFKTSLIVYLEKDRPGALYEPLGFFAKRGINLTKIESRPSKKELGDYYFYIDLEGNISDVLIKDALEDIKSKASKKSRSSTLKVLGSYPAFKK” the “soluble on expression in E. coli” value was “not soluble”. For “KALYSKPGSKNGRWNPETHKFCKCGVRIQTSAYTCSKCRNRSGENNSFFNHKHSDITKSKISEKMKGKKPSNIKKISCDGVIFDCAADAARHFKISSGLVTYRVKSDKWNWFYINA”, the “soluble on expression in E. coli” value was “soluble”. With “SAAEGDFLMRYRAVSNKLKKRFLRKPNVAEASEQFGQLAKELKQQDCPQYAAFCNLAMARCEQTLFNAPGEALALTDAARLFLASEQETRALRAPGFDENMQAAMNCYSFAIKVYIEMNQPVMAARLSLELGNALKEMNRPGEAIIHFQRAAELQIQMPIEALLSLWEMASCKILTRDYDGALAVLSEMQHMCQERGLQLPGTNTPVGAFMDIIAKCEISRVLLLMLLEPPPQKLLPEHAQTLERYAWESFDSHSQMACQEKDTESLKALQTELW” the “soluble on expression in E. coli” value was “soluble”. With “MGSDKIHHHHHHMLNYSLRPENRGKNLESSWQYMFKTYPYLKPWIDSLKQNQALKDTFIYSPDHVKLHAYYVASSRPTAKTAVIVHGYTDNAIRMMMIGYLYNKKLDFNILLPDLRDTGLSGGNAIQMGWLDRKDVTQWMEVANRIYGDSTSMVVHGISMGAATTMMVSGEPQPDYVKCFVEDCGYTSVWDQFSKELKAQFGLPQFPLMYTADWLCQLEYGWGFKEASALKQVARCHLPMFFIHGDKDDYVPTWMVYKLYEAKPQPKALWIVPEADHAHSYLFNTEEYTQKVKAFVDKYIQ” the “soluble on expression in E. coli” value was “not soluble”. With “MLNNGTFPLVFQFIHRRRKLLYYTKYHIFQQQLADGALEVEYCEASLYSMKEIKEINRELKRDYKRFQNRILELERNNEEYLVDDIVEFKKKKSHRSYLLMQYIETQISYKKKMGKDGIAAAYHSTYISLKKYIGMKSARKSDIRMEEINFSFVVGYEDYLNAQGLARNTINYYLRNFRTIYNSSIRDGFKPKSENPFTYIQTKPCKTIKRAINKDDMKKLSSLILPVHSGMDIARDMYLFSFYAQGMAFVDIVFLKKKNIRDGILSYRRHKSQQLIHIVITPQMQGLIDKYANDSEYVFPIIDTSLSTSIYDQYRLALGRVNRYLKKITFRLNINVRLTTYTARHTWATLARESGAPISIISAGLGHTSEEMTRVYLKEFDQETLARVNRIVTNLL” the “soluble on expression in E. coli” value was “not soluble”. For “ALVELKVPDIGGHENVDIIAVEVNVGDTIAVDDTLITLETDKATMDVPAEVAGVVKEVKVKVGDKISEGGLIVVVEAEGTA”, the “soluble on expression in E. coli” value was “soluble”. In the case of “MGSDKIHHHHHHMKTLKFKLYQHKRNRHLKRIINAAGVIYNHCIALHKRYYRMWGNHLSCAKLQSHIAKLRKRNLFWQSLGSQAVQDICQRIEKAYQLFFKHNKKGVRPPGFKKVKKYKSFTLKQAGYKFLGSNRVKIGHRVYQFWKSRDIEGTVKTLTIKRTPLGELFMVVVVDNVSQAEIEVKTGKIAGFDFGLKTFLTCSDGTKIESPQFFKQSLNAIKKASRQHSKKLKSSSNRERARKNLVRKYEDISHRRRDWFWKLAHELTDKFDILCFETLNLKGMQRLWGRKISDLAFGEFLQILKWIAKKKNKLVVFIDQWYPSTKTCSGCGHVLEELDLSIREWRCPSCQSVNGRDENASKVICAVGASTVGLGDVSRYETAIAV”, the “soluble on expression in E. coli” value is reported as “not soluble”. With “MKKSLDEHAERFSDHADAYDEDQDSAAYRACVNFVVDHAAPESDDVVLDLGTGTGAIAFALASDAAEIIGRDISDGMLEKAREKADGRGVENVSFGDGRFRAPNVDRPVDIVTSNFAMHHLGDDEKREAIDTIADLGPRRIVLGDVMLFGDDDPDAPFYSPEVDDPATVGVLADAFTDAGYALTAVEMVTEQAGVLVAERVKSDLEHHHHHH” the “soluble on expression in E. coli” value was “soluble”. In the case of “MISIPKDEFQQIFVKDLMISSEKVAHVQIGNGLEHALLVLVKSGYSAIPVLDPMYKLHGLISTAMILDGILGLERIEFERLEEMKVEQVMKQDIPVLKLEDSFAKALEMTIDHPFICAVNEDGYFEGILTRRAILKLLNKKVRQHNR”, the “soluble on expression in E. coli” value is reported as “not soluble”. In the case of “MGSDKIHHHHHHATETEKDQRKFDYFFYEGLNLKNAGKFDAAYDAFNHCLEIDSTAAPVLYELSSFYVQLNRPEKAVEMLKRAVANSKDNFTYKMALASITRNLGMYGEAAEEYEELVRDYPEKEELNYYLADALTQAGEIGKAIEAYDALESVMGMNEAISMQKYKLYVQLEKPEEAFKEIEKLAAKYPMEARYQIVLGDLHLENGEMDKALACYQKANEIDPTDPYYIVSMANYYEAKGDKEAAEQQIRSALVNEKLDVETKVNILSRYILKLQQTKQGTENANHLFQTLLEQHPEDIDLKLMYGGLLMAQGKTEEAKFQFQLVTEMEPGNAGAWQQLLNLALKGEDIPEVIRICTACMELFPESPEYYFYLGIAYYQQQKYQEALNTYYAGLNIIPKENLPLKSDFYGQIGDIYYQMGQLDQAYKAYDEALKYNDKNVVVLNNYSYFLSLEKKDLKKAERMSAQCIKLEPDNATYLDTYAWIFFVQGNYTLAKIYIESALEKDKTKSAELVDHYGDILFMNGDKEKAVEQWKKAKEMGKDSEILNRKIAEQQYIEDENAK”, the “soluble on expression in E. coli” value is reported as “not soluble”. For “MINIYYNVEPLRSNEEITDFVNKARNGTHGERNALLILIGLNTGLRMSDILNLKVGQIRYHDIVHITEKKTKKRRVILLTRLRPQINHYIKDLPDNEYLFTNRQHQPLSVNAVYKLFQTIARKMHRTDIGTHTLRKTFGYHYYQQTHDIGTLMMIFNHSNEAITKRYIGLNQDVILKQMAGFQLGLEYEKATNMR”, the “soluble on expression in E. coli” value was “not soluble”. In the case of “MAHGFHASVMAITLDKITLTETTLTNPKAVEYQWVRTLYVQGYQPEAINHYIQTCFGGDETFADLFRRVAMHEESLYLLLQYLSCAPSSREF”, the “soluble on expression in E. coli” value is reported as “soluble”. With “MGSDKIHHHHHHMQSKIAEAIKLGNQPVAVMRSDAKPEGAMQFKEGRWGCAISLLNMAAKGQVAVFANSTTTCSGGKVGLGFRQFELGFIEHFLSVGGVGGREGEFYKKNPELAGKFALELPKVTAKEYIIFKPLSELKADETPEGIIFLANADQISALTVLANYDRPTQDNVKVNFGAGCHQTVLFTLDQVDKDEDHCFIGLTDPSARKFIDKDILSFSMTYKRFLELEEQVEESFLTKETWLKVAERI” the “soluble on expression in E. coli” value was “not soluble”.

— the DeepSol protein solubility set
